Measurements as given in paper PMC7064540.

What was measured:
[1] = immunoblot densitometry, Dox-induced Flp-In TREx293; conditions: glycan lost; for expression_or_secretion: control: wild type hGPR176; for expression_or_secretion, percent_of_wt: control: wild type
[2] = immunoblot after MG132 or bafilomycin A1, 6 h; conditions: glycan lost; control: wild type Gpr176-GFP
[3] = confocal GFP imaging with ER-Tracker; conditions: glycan lost; control: wild type Gpr176-GFP
[4] = immunoblot of PNGase F-treated live cells; conditions: glycan lost; control: cells without PNGase F

Row | Protein | expression_or_secretion [1] | further results
1 | hGPR176: N-ter mut (N4Q;N11Q;N17Q;N27Q) (protein) parent chain: MGHNGSWISPNASEPHNASGAEAAGVNRSALGEFGEAQLYRQFTTTVQVVIFIGSLLGNFMVLWSTCRTTVFKSVTNRFIKNLACSGICASLVCVPFDIILSTSPHCCWWIYTMLFCKVVKFLHKVFCSVTILSFPAIALDRYYSVLYPLERKISDAKSRELVMYIWAHAVVASVPVFAVTNVADIYATSTCTEVWSNSLGHLVYVLVYNITTVIVPVVVVFLFLILIRRALSASQKKKVIIAALRTPQNTISIPYASQREAELHATLLSMVMVFILCSVPYATLVVYQTVLNVPDTSVFLLLTAVWLPKVSLLANPVLFLTVNKSVRKCLIGTLVQLHHRYSRRNVVSTGSGMAEASLEPSIRSGSQLLEMFHIGQQQIFKPTEDEEESEAKYIGSADFQAKEIFSTCLEGEQGPQFAPSAPPLSTVDSVSQVAPAAPVEPETFPDKYSLQFGFGPFELPPQWLSETRNSKKRLLPPLGNTPEELIQTKVPKVGRVERKMSRNNKVSIFPKVDS | decreases | –
2 | hGPR176: N4S (protein) parent chain: MGHNGSWISPNASEPHNASGAEAAGVNRSALGEFGEAQLYRQFTTTVQVVIFIGSLLGNFMVLWSTCRTTVFKSVTNRFIKNLACSGICASLVCVPFDIILSTSPHCCWWIYTMLFCKVVKFLHKVFCSVTILSFPAIALDRYYSVLYPLERKISDAKSRELVMYIWAHAVVASVPVFAVTNVADIYATSTCTEVWSNSLGHLVYVLVYNITTVIVPVVVVFLFLILIRRALSASQKKKVIIAALRTPQNTISIPYASQREAELHATLLSMVMVFILCSVPYATLVVYQTVLNVPDTSVFLLLTAVWLPKVSLLANPVLFLTVNKSVRKCLIGTLVQLHHRYSRRNVVSTGSGMAEASLEPSIRSGSQLLEMFHIGQQQIFKPTEDEEESEAKYIGSADFQAKEIFSTCLEGEQGPQFAPSAPPLSTVDSVSQVAPAAPVEPETFPDKYSLQFGFGPFELPPQWLSETRNSKKRLLPPLGNTPEELIQTKVPKVGRVERKMSRNNKVSIFPKVDS | decreases | –
3 | hGPR176: S13G (protein) parent chain: MGHNGSWISPNASEPHNASGAEAAGVNRSALGEFGEAQLYRQFTTTVQVVIFIGSLLGNFMVLWSTCRTTVFKSVTNRFIKNLACSGICASLVCVPFDIILSTSPHCCWWIYTMLFCKVVKFLHKVFCSVTILSFPAIALDRYYSVLYPLERKISDAKSRELVMYIWAHAVVASVPVFAVTNVADIYATSTCTEVWSNSLGHLVYVLVYNITTVIVPVVVVFLFLILIRRALSASQKKKVIIAALRTPQNTISIPYASQREAELHATLLSMVMVFILCSVPYATLVVYQTVLNVPDTSVFLLLTAVWLPKVSLLANPVLFLTVNKSVRKCLIGTLVQLHHRYSRRNVVSTGSGMAEASLEPSIRSGSQLLEMFHIGQQQIFKPTEDEEESEAKYIGSADFQAKEIFSTCLEGEQGPQFAPSAPPLSTVDSVSQVAPAAPVEPETFPDKYSLQFGFGPFELPPQWLSETRNSKKRLLPPLGNTPEELIQTKVPKVGRVERKMSRNNKVSIFPKVDS | decreases | –
4 | hGPR176: N4D (protein) parent chain: MGHNGSWISPNASEPHNASGAEAAGVNRSALGEFGEAQLYRQFTTTVQVVIFIGSLLGNFMVLWSTCRTTVFKSVTNRFIKNLACSGICASLVCVPFDIILSTSPHCCWWIYTMLFCKVVKFLHKVFCSVTILSFPAIALDRYYSVLYPLERKISDAKSRELVMYIWAHAVVASVPVFAVTNVADIYATSTCTEVWSNSLGHLVYVLVYNITTVIVPVVVVFLFLILIRRALSASQKKKVIIAALRTPQNTISIPYASQREAELHATLLSMVMVFILCSVPYATLVVYQTVLNVPDTSVFLLLTAVWLPKVSLLANPVLFLTVNKSVRKCLIGTLVQLHHRYSRRNVVSTGSGMAEASLEPSIRSGSQLLEMFHIGQQQIFKPTEDEEESEAKYIGSADFQAKEIFSTCLEGEQGPQFAPSAPPLSTVDSVSQVAPAAPVEPETFPDKYSLQFGFGPFELPPQWLSETRNSKKRLLPPLGNTPEELIQTKVPKVGRVERKMSRNNKVSIFPKVDS | no change | –
5 | hGPR176: N17T (protein) parent chain: MGHNGSWISPNASEPHNASGAEAAGVNRSALGEFGEAQLYRQFTTTVQVVIFIGSLLGNFMVLWSTCRTTVFKSVTNRFIKNLACSGICASLVCVPFDIILSTSPHCCWWIYTMLFCKVVKFLHKVFCSVTILSFPAIALDRYYSVLYPLERKISDAKSRELVMYIWAHAVVASVPVFAVTNVADIYATSTCTEVWSNSLGHLVYVLVYNITTVIVPVVVVFLFLILIRRALSASQKKKVIIAALRTPQNTISIPYASQREAELHATLLSMVMVFILCSVPYATLVVYQTVLNVPDTSVFLLLTAVWLPKVSLLANPVLFLTVNKSVRKCLIGTLVQLHHRYSRRNVVSTGSGMAEASLEPSIRSGSQLLEMFHIGQQQIFKPTEDEEESEAKYIGSADFQAKEIFSTCLEGEQGPQFAPSAPPLSTVDSVSQVAPAAPVEPETFPDKYSLQFGFGPFELPPQWLSETRNSKKRLLPPLGNTPEELIQTKVPKVGRVERKMSRNNKVSIFPKVDS | no change | –
6 | hGPR176: N17K (protein) parent chain: MGHNGSWISPNASEPHNASGAEAAGVNRSALGEFGEAQLYRQFTTTVQVVIFIGSLLGNFMVLWSTCRTTVFKSVTNRFIKNLACSGICASLVCVPFDIILSTSPHCCWWIYTMLFCKVVKFLHKVFCSVTILSFPAIALDRYYSVLYPLERKISDAKSRELVMYIWAHAVVASVPVFAVTNVADIYATSTCTEVWSNSLGHLVYVLVYNITTVIVPVVVVFLFLILIRRALSASQKKKVIIAALRTPQNTISIPYASQREAELHATLLSMVMVFILCSVPYATLVVYQTVLNVPDTSVFLLLTAVWLPKVSLLANPVLFLTVNKSVRKCLIGTLVQLHHRYSRRNVVSTGSGMAEASLEPSIRSGSQLLEMFHIGQQQIFKPTEDEEESEAKYIGSADFQAKEIFSTCLEGEQGPQFAPSAPPLSTVDSVSQVAPAAPVEPETFPDKYSLQFGFGPFELPPQWLSETRNSKKRLLPPLGNTPEELIQTKVPKVGRVERKMSRNNKVSIFPKVDS | no change | –
7 | Gpr176: N-ter mut (protein) parent chain: MGHNSSWVSPNTSHPRNTSGAEAGANLSAFGELSEAQLYRQFTTTVQVVIFIGSLLGNFMVLWSTCRTTVFKSVTNRFIKNLACSGICASVVCVPFDIILSSSPHCCWWIYTMLFCKVLKFLHKVFCSVTVLSFPAIALDRYYSVLYPLERKISDAKSRELVMYIWAHAVVASVPVFAVTNVADIYAMSTCTEVWSNSLGHLVYVLIYNVTTVIVPVAVVFLFLILIRRALSASQKKKVIIAALRTPQNTISIPYASQREAELHATLLSMVTVFILCSVPYATLVVYQTVLNVPNTSVFLLLTAIWLPKVSLLANPVLFLTVNKSVRKCLVGTLVQLHHRYSRRNVVSTGSGVAEPSLEPSMRSGSQLLEMFHIGQQQIFKPSEDEEESEAKYLGSADFQAKEVLTSCPEGEQEPPQLAPSVPPPGTVDSEPRVSPVAPMESGIFPDKYSLQFGFGPFELPPQWLSETRNSKKRLLPPLGNTPEELIQTKVPRVNRVERKMSRNNKVSIFPKVDS | – | degradation_or_half_life [2]: decreases; expression_or_secretion, percent_of_wt [1]: decreases; localisation_or_trafficking [3]: changes
8 | Gpr176: N-ter/ECL3 (protein) parent chain: MGHNSSWVSPNTSHPRNTSGAEAGANLSAFGELSEAQLYRQFTTTVQVVIFIGSLLGNFMVLWSTCRTTVFKSVTNRFIKNLACSGICASVVCVPFDIILSSSPHCCWWIYTMLFCKVLKFLHKVFCSVTVLSFPAIALDRYYSVLYPLERKISDAKSRELVMYIWAHAVVASVPVFAVTNVADIYAMSTCTEVWSNSLGHLVYVLIYNVTTVIVPVAVVFLFLILIRRALSASQKKKVIIAALRTPQNTISIPYASQREAELHATLLSMVTVFILCSVPYATLVVYQTVLNVPNTSVFLLLTAIWLPKVSLLANPVLFLTVNKSVRKCLVGTLVQLHHRYSRRNVVSTGSGVAEPSLEPSMRSGSQLLEMFHIGQQQIFKPSEDEEESEAKYLGSADFQAKEVLTSCPEGEQEPPQLAPSVPPPGTVDSEPRVSPVAPMESGIFPDKYSLQFGFGPFELPPQWLSETRNSKKRLLPPLGNTPEELIQTKVPRVNRVERKMSRNNKVSIFPKVDS | – | expression_or_secretion, percent_of_wt [1]: decreases
9 | Gpr176: PNGase F (protein) parent chain: MGHNSSWVSPNTSHPRNTSGAEAGANLSAFGELSEAQLYRQFTTTVQVVIFIGSLLGNFMVLWSTCRTTVFKSVTNRFIKNLACSGICASVVCVPFDIILSSSPHCCWWIYTMLFCKVLKFLHKVFCSVTVLSFPAIALDRYYSVLYPLERKISDAKSRELVMYIWAHAVVASVPVFAVTNVADIYAMSTCTEVWSNSLGHLVYVLIYNVTTVIVPVAVVFLFLILIRRALSASQKKKVIIAALRTPQNTISIPYASQREAELHATLLSMVTVFILCSVPYATLVVYQTVLNVPNTSVFLLLTAIWLPKVSLLANPVLFLTVNKSVRKCLVGTLVQLHHRYSRRNVVSTGSGVAEPSLEPSMRSGSQLLEMFHIGQQQIFKPSEDEEESEAKYLGSADFQAKEVLTSCPEGEQEPPQLAPSVPPPGTVDSEPRVSPVAPMESGIFPDKYSLQFGFGPFELPPQWLSETRNSKKRLLPPLGNTPEELIQTKVPRVNRVERKMSRNNKVSIFPKVDS | – | expression_or_secretion [4]: no change
